Measurements as given in PMC8887629.

Target: full-length human LRRK2 (leucine-rich repeat kinase 2) (human) (UniProt Q5S007)
Experiment: cryo-EM structure

stoichiometry N: 2
Substance: full-length human LRRK2 (leucine-rich repeat kinase 2) (from UniProt Q5S007 1-2527) (enzyme)
